The source of these data is publication doi:10.1101/794511 (bioRxiv, 2019).

B1: Ascl1 amino acids 92-231 containing the bHLH domain, His-tagged (domain or fragment)
chain: MRCKRRLNFSGFGYSLPQQQPAAVARRNERERNRVKLVNLGFATLREHVPNGAANKKMSKVETLRSAVEYIRALQQLLDEHDAVSAAFQAGVLSPTISPNYSNDLNSMAGSPVSSYSSDEGSYDPLSPEEQELLDFTNWF
B2: Gsx2^N253A amino acids 167-305 containing the mutated homeodomain, His-tagged (domain or fragment)
chain: not shown

The series “native gel or EMSA” concerns the molecule itself. The experiment in a line: native gel or EMSA. A general note: A gel shift assay detects complexes by their altered migration in electrophoresis.
The target in series [1] is B1. Nature of the series: native gel or EMSA.

On to B1, for which the binding result in the series “native gel or EMSA” is “binds”.
With B2, the binding result in series [1] is on record as “binds”.
